Assay [1] concerns the target β-fragment of EGFP (betaCys-fragment, 159-234 aa) biotinylated, tagged with streptavidin and a biotinylated 21-nt oligonucleotide (Aequorea victoria) [GFP: P42212]. Briefly: cell-based or functional assay.
Assay [2] has as its target bacteriophage λN peptide fused to the N-terminus of β-EGFP (bacteriophage λ; Aequorea victoria) [GFP: P42212]. Briefly: cell-based or functional assay.

Values joined by “and” are separate entries in the source; they are usually repeats but may differ in a detail not shown here. Equal entries are not always repeated.

For “α-fragment of EGFP (alphaCys-fragment, 1-158) biotinylated, tagged with streptavidin and a biotinylated 21-nt oligonucleotide (from UniProt P42212 1-158; P22629 37-163)”, in assay [1], the t½ of fluorescence increase upon mixing turned out to be 1.67 min.
For the substance “α-EGFP fused at its C-terminus to HTLV-1 Rex peptide (from UniProt P42212 1-158)”, in assay [2], the average fluorescence over background (no RNA component), 0.01 mM IPTG is 10 fold and 15 fold; the signal/background ratio at reduced IPTG is 10 fold and 20 fold.

For the origin of these results see patent US20090029370A1.
